From the nanobody polyreactivity screen of Harvey et al. (2022)

Test: yeast display, Sf9 membrane polyspecificity reagent, FACS + sequencing; frameworks hold sequencing errors
Outline: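 After 36–48 hours of galactose induction, yeast (Saccharomyces cerevisiae BJ5465) displaying a synthetic nanobody library were stained at 4 °C for 1 hour with 10% biotinylated, detergent-solubilized Sf9 membrane reagent. Streptavidin microbeads enriched the stained cells before FACS sorting into low and high (top ~1%) gates on anti-HA and streptavidin fluorescence. Each clone's polyreactivity label reflects its gate of origin.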

Sequence: QVQLVESGGGLVQAGGSLRLSCAASGRTFTSNAMGWYRQAPGKERELVAAISNRGTRTYYADSVKGRFTISRDNAKNTVYLQMNSLKPEDTAVYYCAASERDQRFKHYYWGQGTQVTVSS
- polyreactivity (PSR sort gate): high polyreactivity

Sequence: QVQLVESGGGLVQAGGSLRLSCAASGSIFVYNAMGWYSPAPGQERELVAAITYSGGRTYYADSVKGRFTISRDNAKNTVYVQMNSLKPEDTAVDFCAADLTSKSSPQGYRYDYWGQGTQVTVSS
- polyreactivity (PSR sort gate): low polyreactivity

Sequence: QVQLVESGGGLVQAGGSHRLSCAASGRTFCKYAMGWYRQAPGKERELVAAITAGGGTKYADSVKGRFTISRDNAKNTVYLQMNSLKPEDTAVYYCAAASGSRRHGYWGQGTQVTVSS
- polyreactivity (PSR sort gate): high polyreactivity

Sequence: QGQLVESGGGLVQAGGSLRLSCAASGSISGNYAMAWYRQAPGKERELVASIRYTGARTYYADSVKWRFTISRDNAKNTVYLQMNSLKPEDTAVYYCAADVKRDRVWGGDYWGQGTQVTVSS
- polyreactivity (PSR sort gate): low polyreactivity

Sequence: QVQLVESGGGLVQAGGSLRLSCAASGIIFLKNAMGWYRQAPGKERELVAAITVSGARTYYADSVKGRFTISRDNAKNTVYLQMNSLKPEDTAVYYCATDRSYQRYNYWGQGTQVTVSS
- polyreactivity (PSR sort gate): high polyreactivity

Sequence: QVQLVESGGGLVQAGGSLRLSCAASGLTFYSYAMGWYSPAPGKERELVAAITSSGSITYYADSVKGRFTISRDNAKNTVYLQMNSLKPEDTAVYYCAARPYRVRGQRFEGNYWGQGTQVTVSS
- polyreactivity (PSR sort gate): high polyreactivity

Sequence: QVQLVESGGGLVQAGGSLRLSCAASGRTIRYYAMGWYRQAPGKERELVAAITWSVGSTYYADSVKGRFTISRDNAKNTVYLQMNSLKPEDTAVYYCAARLYQLYYWGQGTQVTVSS
- polyreactivity (PSR sort gate): high polyreactivity

Sequence: QVQLVESGGGLVQAGGSLRLSCAASGSTFYPNAMGWYRQAPGKERELVAAITDSVGTTNYADSVKGRFTISRDNAKNTVYLQMNSLKPEDTAVYYCAKVKSYWNGYRYYYWGQGTQVTVSS
- polyreactivity (PSR sort gate): low polyreactivity

Sequence: QVQIVESGGGLVQAGVSLRLSCAASGLTIGVYAMGWYRQAPGKERELVAAISWSGGTTYYADSVKGRFTISRDNAKINFYLQMNSLKPEDTAVYYCAADYYTDVDYWGQGNQVTVSS
- polyreactivity (PSR sort gate): low polyreactivity

Sequence: QVQLVESGGGLVQAGGSLRLSCAASGFIFRYYAMGWYRQAPGKERELVAAITRGGSTYYADSVKGRFTISRDNAKNTVYLQMNSLKPEDTAVYYCAARLYTQYYYWGQGTQVTVSS
- polyreactivity (PSR sort gate): high polyreactivity

Sequence: QVQLVESGGGLVQAGGSLRLSCAASGLTFVANAMGWYSQAPGKERELVARISSSGGSTYYADSVKGRFTISRDNAKNTVYLQMNSLKPEDTAVYYCASSQSGGYDYWGQGTQVTVSS
- polyreactivity (PSR sort gate): high polyreactivity

Sequence: QVQLVESGGGLVQAGGSLRLSCAASGSTFQRYAMGWYRQAPGKERELVAVITNGGSTKYADSVKGRFTISRDNAKNTVYLQMNSLKPEDTAVYYCAAGLRSWSTGLWYGYWGQGTQVTVSS
- polyreactivity (PSR sort gate): high polyreactivity

Sequence: QVQLVESGGGLLQAGGSLRLSCAASGSIFSGYAMGWYRQAPGKERELVAAISGSGGSTFYADSVKGRFTISRDNAKNTVYLQMNSLKPEDTAVYYCAARRIAPYGRYDYWGQGTQVTVSS
- polyreactivity (PSR sort gate): low polyreactivity

Sequence: QVQLVESGGGLVQAGGSLRLSCAASGITSNSYAMGWYRQAPGKERELVATITSGGSTNYADSVKGRFTISRDNAKNSVYLQMNSLKPEDTAVYYCNREDWLPTQYDYWGQGTQVTVSS
- polyreactivity (PSR sort gate): low polyreactivity

Sequence: QVQLVESGGGLVQAGGSLRLSCAASGRIFGVNAMGWYRQAPWKERELVAAINYSGGRTSYADSVKGRFTISRDNAKNTVYLQMNSLKPEDTAVYYCNAGGRRRIFAHSSTGDYWGQGTQVTVSS
- polyreactivity (PSR sort gate): high polyreactivity

Sequence: QVQLVESGGGLVQAGGSLRLSCADSGSTFHPYAMGWYRKAPGKERELVAAISWTGGRTYYADSVKGRFTISRDNSKNTVYLQMNSLKPEDTAVYYCAARTYGKVGYWGQGTQVTVSS
- polyreactivity (PSR sort gate): high polyreactivity

Sequence: QVQLVESWGGLVQAGGSLPLRCAASGRTFVQYAMGWYRQAPGKERELVAAISLSGGRTYYADSVKGRFTISRDNAKNTVYLQMNSLKPEDTAVYYFSARDSSRYYWGQGTQVTVSS
- polyreactivity (PSR sort gate): high polyreactivity
